From publication doi:10.1101/807917

Target: E. coli 30S initiation complex (30S IC) lacking IF2 and IF3 (E. coli) (UniProt P69222)
Assay: FRET or BRET

Chain of UniProt P69222 (P69222 whole entry, looked up, one chain of several): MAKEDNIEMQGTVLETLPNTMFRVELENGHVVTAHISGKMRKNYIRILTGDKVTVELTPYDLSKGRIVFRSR

fold change of Kd, IF2 bound to ppGpp relative to IF2 bound to GTP: 10 fold
Substance: Cy5-labeled Initiation Factor 2 (IF2), E. coli (from UniProt P0A705 1-890) (natural protein)
